The supplement of paper PMC12042874
± gives the uncertainty stated by the source.

Assay: amyloid nucleation score (Sup35N fusion, yeast selection) (log enrichment); library NNK1; higher = more nucleation; inactive = no reads after selection
Procedure, shortened: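 The nucleation score is the log enrichment of output over input reads, calculated with DiMSum and centred on the mode score of non-aggregating sequences. Sequences with under 100 input reads were excluded. Reads came from Illumina sequencing of plasmid inserts from psi-negative yeast expressing Sup35N fused to peptides of 20 random codons, induced 24 hours with 100 μM copper sulfate and grown 7 days at 30°C without adenine and uracil.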

With QMNGWVCCFSQGQRMFVLLM as the substance, how does the amyloid nucleation score read?
The amyloid nucleation score was 0.977 ± 0.47.

For QMTVGQYSCL, which amyloid nucleation score is on record?
Its amyloid nucleation score is 0.45 ± 1.1.

With QMYYFRCGQFTQGGNTQWLW as the substance, how does the amyloid nucleation score read?
Its amyloid nucleation score is 0.632 ± 0.39.

Which amyloid nucleation score does the source give for QNHSGPGLMIRILANAQKWF here?
The amyloid nucleation score was -0.93 ± 2.4.

With QNMWIHCWCGRGGMMTREPG as the substance, how does the amyloid nucleation score read?
Its amyloid nucleation score is 4.73 ± 0.052.

For QPFALNRLYHT, which amyloid nucleation score is on record?
The amyloid nucleation score was -0.591 ± 0.62.

Which amyloid nucleation score does the source give for QQVSVLILPALTKGRKVV here?
The amyloid nucleation score was -0.991 ± 0.69.

Which amyloid nucleation score does the source give for QRCYCGSCDWLRAMFVCWGL here?
Its amyloid nucleation score is “inactive”.

Which amyloid nucleation score does the source give for QRKYNDLFWLTSPFSQSMWM here?
Its amyloid nucleation score is 0.997 ± 1.1.

For QRSCNAVTFVGCQYNFFPTE, which amyloid nucleation score is on record?
The amyloid nucleation score was 7.091 ± 0.05.

Which amyloid nucleation score does the source give for QRSLLDDRYNAICSSNTNVE here?
Its amyloid nucleation score is 0.184 ± 0.35.

Which amyloid nucleation score does the source give for QRVGCKW here?
Its amyloid nucleation score is -0.771 ± 0.88.

With QRVRNRM as the substance, how does the amyloid nucleation score read?
Its amyloid nucleation score is 0.03 ± 0.33.

For QSVQHFGGYTKTLGASMGTF, which amyloid nucleation score is on record?
The amyloid nucleation score was -0.797 ± 2.4.

For QSVWEYNGTFSLRYRDMTGY, which amyloid nucleation score is on record?
The amyloid nucleation score was 0.477 ± 0.65.

With QTRRVVHSGN as the substance, how does the amyloid nucleation score read?
Its amyloid nucleation score is 0.284 ± 0.81.

Which amyloid nucleation score does the source give for QTVGKVDVVDCLVLVVRLTI here?
The amyloid nucleation score was -0.003 ± 0.57.

Which amyloid nucleation score does the source give for QVCLNDRNSSYVMRDICVY here?
The amyloid nucleation score was -0.334 ± 1.2.

With QVDHKIWKGTVYDLSMGMM as the substance, how does the amyloid nucleation score read?
Its amyloid nucleation score is -0.35 ± 0.46.

With QVHPPMTTGPC as the substance, how does the amyloid nucleation score read?
Its amyloid nucleation score is 0.291 ± 0.53.

With QVNNPSTWLMRNQIDQKLLR as the substance, how does the amyloid nucleation score read?
Its amyloid nucleation score is -1.8 ± 1.7.

For QVSTNLVWDL, which amyloid nucleation score is on record?
The amyloid nucleation score was 0.614 ± 1.2.

With QVVFE as the substance, how does the amyloid nucleation score read?
Its amyloid nucleation score is 0.1 ± 0.68.

With QVYEDGRAICHLTLGRDCNL as the substance, how does the amyloid nucleation score read?
The amyloid nucleation score was 2.22 ± 0.47.

Which amyloid nucleation score does the source give for QWCVKESAFIYEYRLSGDCR here?
The amyloid nucleation score was 0.877 ± 0.32.

For QYFSWGRVATCSACG, which amyloid nucleation score is on record?
The amyloid nucleation score was 0.309 ± 0.62.

Which amyloid nucleation score does the source give for QYHLWFMCAAVDRMKNGPFG here?
The amyloid nucleation score was 0.049 ± 0.36.

For QYSGYNRRDDSFPSWGCLLT, which amyloid nucleation score is on record?
Its amyloid nucleation score is “inactive”.

Which amyloid nucleation score does the source give for RADGLHASETVGSLL here?
The amyloid nucleation score was -1.13 ± 2.7.

Which amyloid nucleation score does the source give for RAFNRIINHRTEGNNPYYFL here?
Its amyloid nucleation score is “inactive”.

For RAHNKISDDTRAFMGSIFSE, which amyloid nucleation score is on record?
The amyloid nucleation score was -0.05 ± 1.4.

Which amyloid nucleation score does the source give for RAHVLLLFMNCRRCKQTMIR here?
The amyloid nucleation score was -0.88 ± 1.1.

Which amyloid nucleation score does the source give for RAIMRKIYYHVMMIWI here?
The amyloid nucleation score was 0.153 ± 0.41.

For RAMCKNQCSYVMR, which amyloid nucleation score is on record?
The amyloid nucleation score was 0.003 ± 0.37.

Which amyloid nucleation score does the source give for RAMDYFALEIQLVPRRLVQL here?
Its amyloid nucleation score is 0.18 ± 0.41.

With RAMTVLLGGNFQMIIKTFEL as the substance, how does the amyloid nucleation score read?
Its amyloid nucleation score is 3.09 ± 0.074.

With RARRGWSTGDEQHMSGKGIK as the substance, how does the amyloid nucleation score read?
The amyloid nucleation score was 0.097 ± 0.49.

For RASHGAYDNFRGKKFMMRVM, which amyloid nucleation score is on record?
The amyloid nucleation score was -1.01 ± 0.54.

For RATCVFCYTICFSWPSVWTF, which amyloid nucleation score is on record?
Its amyloid nucleation score is 3.5 ± 0.062.

For RAWQHNFGKIMRSPRVFVRW, which amyloid nucleation score is on record?
The amyloid nucleation score was -1.4 ± 0.94.

Which amyloid nucleation score does the source give for RCEGYFSVDVRGYSMLEIPG here?
The amyloid nucleation score was -0.365 ± 1.3.

For RCISIRAYVTLFRNEYLCSN, which amyloid nucleation score is on record?
The amyloid nucleation score was 4.86 ± 0.1.

Which amyloid nucleation score does the source give for RCLGVCYTLDVFRSRMLDKL here?
The amyloid nucleation score was -0.097 ± 0.44.

Which amyloid nucleation score does the source give for RCLQKPMRLRSQKIKQCVLR here?
Its amyloid nucleation score is -0.341 ± 1.4.

For RCMGGGFRRRVNMYETPGIR, which amyloid nucleation score is on record?
The amyloid nucleation score was -0.387 ± 0.79.

For RCMNWVKCDRNPCVMLSIGT, which amyloid nucleation score is on record?
Its amyloid nucleation score is “inactive”.

With RCSFIS as the substance, how does the amyloid nucleation score read?
The amyloid nucleation score was -0.682 ± 0.75.

For RCSFSGNYIIILLAVRTYFE, which amyloid nucleation score is on record?
Its amyloid nucleation score is 1.1 ± 0.47.

With RCSNLGFKFWR as the substance, how does the amyloid nucleation score read?
Its amyloid nucleation score is -0.332 ± 0.39.

With RCVFNRIKDFSVRDRWSFSG as the substance, how does the amyloid nucleation score read?
Its amyloid nucleation score is 1.03 ± 0.73.

With RCVIDDKLWGISLRGPMMGV as the substance, how does the amyloid nucleation score read?
The amyloid nucleation score was -1.48 ± 1.9.

Which amyloid nucleation score does the source give for RCVMRAHFSTWLHKVSTSVW here?
The amyloid nucleation score was 0.677 ± 0.54.

Which amyloid nucleation score does the source give for RCVSAFLLLFSMHRHG here?
The amyloid nucleation score was 1.28 ± 0.36.

With RCYHWVDLVCVRVGTRACFL as the substance, how does the amyloid nucleation score read?
Its amyloid nucleation score is 0.877 ± 1.1.

With RCYVDKSYNGDWASSAGQKH as the substance, how does the amyloid nucleation score read?
The amyloid nucleation score was 0.065 ± 0.44.

For RDCPTNIVAGTLLCLMAEWT, which amyloid nucleation score is on record?
Its amyloid nucleation score is -0.549 ± 1.

Which amyloid nucleation score does the source give for RDGIMYG here?
Its amyloid nucleation score is 0.505 ± 0.39.

For RDHTIRPLWIAGSHMQFLNR, which amyloid nucleation score is on record?
Its amyloid nucleation score is 0.477 ± 0.34.

Which amyloid nucleation score does the source give for RDIYRVYNV here?
The amyloid nucleation score was -1.05 ± 0.72.

With RDLPFVTSSLCCSNTSGCMF as the substance, how does the amyloid nucleation score read?
Its amyloid nucleation score is 0.429 ± 0.53.

With RDRDVEFTNDL as the substance, how does the amyloid nucleation score read?
The amyloid nucleation score was 0.614 ± 0.75.

Which amyloid nucleation score does the source give for RDSAL here?
Its amyloid nucleation score is 0.274 ± 0.4.

Which amyloid nucleation score does the source give for RDTHRDNRNLPSHLSSVYRK here?
The amyloid nucleation score was -1.35 ± 2.4.

For RDTNVWFHT, which amyloid nucleation score is on record?
The amyloid nucleation score was -0.267 ± 1.1.

With RDWLLTLVLTLSQGPTTCAT as the substance, how does the amyloid nucleation score read?
Its amyloid nucleation score is 0.247 ± 1.4.

With RDYYIVNSGLKLEYHLLI as the substance, how does the amyloid nucleation score read?
The amyloid nucleation score was 3.77 ± 0.051.

For REVWRLFILSRVVGYKVIL, which amyloid nucleation score is on record?
Its amyloid nucleation score is 0.142 ± 0.22.

With REYNSYLLGVGHNLQLRSYI as the substance, how does the amyloid nucleation score read?
The amyloid nucleation score was “inactive”.

For RFHSFYNPQSSIDITLVGGF, which amyloid nucleation score is on record?
The amyloid nucleation score was 4.65 ± 0.089.

With RFHWACKVYLSNYMV as the substance, how does the amyloid nucleation score read?
The amyloid nucleation score was 0.69 ± 0.25.

Which amyloid nucleation score does the source give for RFIIFNHDLGLRD here?
The amyloid nucleation score was -0.384 ± 0.51.

Which amyloid nucleation score does the source give for RFKCDVTTVDW here?
Its amyloid nucleation score is 0.108 ± 0.24.

For RFRFMLVFSNLSLL, which amyloid nucleation score is on record?
Its amyloid nucleation score is -0.022 ± 0.53.

For RFRFNWLNSQNLQRFVGTFK, which amyloid nucleation score is on record?
The amyloid nucleation score was 0.433 ± 0.3.

With RFSRVFIRLMGDVALSSGLL as the substance, how does the amyloid nucleation score read?
Its amyloid nucleation score is 0.532 ± 0.53.

For RFTNIFAKNRLCRLDMRRNT, which amyloid nucleation score is on record?
The amyloid nucleation score was -0.211 ± 0.56.

For RFVCQPNRWFHNKRGVGRET, which amyloid nucleation score is on record?
Its amyloid nucleation score is 0.653 ± 0.64.

With RGAQLIRRSFKTVAGLGFIM as the substance, how does the amyloid nucleation score read?
Its amyloid nucleation score is -0.767 ± 1.4.

Which amyloid nucleation score does the source give for RGCVGRSFSDEES here?
Its amyloid nucleation score is -1.22 ± 1.5.

With RGDLF as the substance, how does the amyloid nucleation score read?
The amyloid nucleation score was 3.04 ± 0.07.

For RGFMWLACITCFYAVCYNVS, which amyloid nucleation score is on record?
The amyloid nucleation score was 0.005 ± 0.45.

With RGFQTKSKGLARRSMYKCWE as the substance, how does the amyloid nucleation score read?
Its amyloid nucleation score is -0.275 ± 0.31.

Which amyloid nucleation score does the source give for RGFWLERCSWTF here?
Its amyloid nucleation score is -0.003 ± 0.37.

With RGGMF as the substance, how does the amyloid nucleation score read?
The amyloid nucleation score was -0.252 ± 0.67.

Which amyloid nucleation score does the source give for RGGNIVKHRLFGPDGGAYWK here?
The amyloid nucleation score was -0.591 ± 0.79.

For RGGRRDWLCIFRGRLGVA, which amyloid nucleation score is on record?
Its amyloid nucleation score is -1.08 ± 0.78.
